{"source": "the RNAGym collection of RNA variant scans (doi:10.7554/elife.80360)", "parents": {"B1": {"name": "Hammerhead Ribozyme (parent)", "chain": "ACCGGAUGUGCUUUCCGGUCUGAUGAGUCCGUGAGGACGAAACAG"}}}
{"variants_of": "B1", "test": "self-cleavage, relative activity (ratio to wild type); higher = more cleavage; co-transcriptional"}
{"variant": "U12A G36C", "self-cleavage": 0.758}
{"variant": "C16U G31A", "self-cleavage": 0.731}
{"variant": "C3A G27U", "self-cleavage": 0.305}
{"variant": "C11G G33A", "self-cleavage": 1.11}
{"variant": "U32G A34U", "self-cleavage": 1.19}
{"variant": "A6G C15G", "self-cleavage": 0.54}
{"variant": "G27C A44U", "self-cleavage": 0.445}
{"variant": "G8A G35A", "self-cleavage": 0.939}
{"variant": "G4A U32G", "self-cleavage": 0.436}
{"variant": "G4A U32A", "self-cleavage": 0.579}
{"variant": "G5A U24A", "self-cleavage": 1.21}
{"variant": "A26G A42U", "self-cleavage": 0.286}
{"variant": "C20A U28G", "self-cleavage": 0.552}
{"variant": "A1U U14C", "self-cleavage": 0.531}
{"variant": "U12C G36U", "self-cleavage": 0.498}
{"variant": "U24C A40G", "self-cleavage": 0.27}
{"variant": "C20A C30G", "self-cleavage": 0.353}
{"variant": "C3A C38G", "self-cleavage": 0.329}
{"variant": "C29U G36C", "self-cleavage": 0.603}
{"variant": "G22A A42G", "self-cleavage": 0.351}
{"variant": "C16G G17U", "self-cleavage": 0.681}
{"variant": "A1C C3A", "self-cleavage": 0.426}
{"variant": "G22C A44U", "self-cleavage": 0.323}
{"variant": "A42G A44U", "self-cleavage": 0.233}
{"variant": "U24G A40C", "self-cleavage": 0.421}
{"variant": "U9A U12G", "self-cleavage": 0.802}
{"variant": "G10U A37C", "self-cleavage": 0.934}
{"variant": "A26G A44G", "self-cleavage": 0.654}
{"variant": "G18A G33A", "self-cleavage": 0.873}
{"variant": "G18A G31C", "self-cleavage": 0.74}
{"variant": "C3A C20G", "self-cleavage": 0.254}
{"variant": "C15G C29U", "self-cleavage": 0.822}
{"variant": "G36A G45U", "self-cleavage": 0.452}
{"variant": "U13C G27A", "self-cleavage": 1.09}
{"variant": "G31U C43G", "self-cleavage": 0.472}
{"variant": "G4U G36U", "self-cleavage": 0.267}
{"variant": "U24A G39U", "self-cleavage": 0.464}
{"variant": "C11G G39A", "self-cleavage": 0.253}
{"variant": "U32C A44U", "self-cleavage": 0.359}
{"variant": "U7C G22U", "self-cleavage": 0.289}
{"variant": "U12G U32C", "self-cleavage": 0.921}
{"variant": "G31A C43G", "self-cleavage": 0.345}
{"variant": "A1G A40C", "self-cleavage": 0.691}
{"variant": "C3A G36U", "self-cleavage": 0.283}
{"variant": "G33U A40U", "self-cleavage": 0.391}
{"variant": "U9A G27A", "self-cleavage": 0.841}
{"variant": "C2U G45U", "self-cleavage": 0.835}
{"variant": "A42U G45U", "self-cleavage": 0.427}
{"variant": "U21G A26G", "self-cleavage": 0.343}
{"variant": "G10A G27A", "self-cleavage": 0.94}
{"variant": "U24G A41U", "self-cleavage": 0.323}
{"variant": "U13C G25C", "self-cleavage": 0.264}
{"variant": "A37C G45A", "self-cleavage": 0.404}
{"variant": "G17A A37C", "self-cleavage": 0.642}
{"variant": "G4U G5U", "self-cleavage": 0.359}
{"variant": "C20G A34C", "self-cleavage": 0.365}
{"variant": "U14C G27U", "self-cleavage": 0.331}
{"variant": "G4C A37G", "self-cleavage": 0.516}
{"variant": "C11A C43G", "self-cleavage": 0.353}
{"variant": "G10C G45C", "self-cleavage": 0.783}
{"variant": "G33C A41U", "self-cleavage": 0.459}
{"variant": "G18A C29G", "self-cleavage": 0.537}
{"variant": "G8U G22C", "self-cleavage": 0.354}
{"variant": "U19G C43G", "self-cleavage": 0.321}
{"variant": "U19C G31A", "self-cleavage": 0.967}
{"variant": "G18U U32A", "self-cleavage": 0.646}
{"variant": "G36A G39U", "self-cleavage": 0.322}
{"variant": "A1G C15G", "self-cleavage": 0.996}
{"variant": "U13C A41G", "self-cleavage": 0.394}
{"variant": "C20G G45A", "self-cleavage": 0.356}
{"variant": "C2A G33C", "self-cleavage": 0.888}
{"variant": "C2U C43A", "self-cleavage": 0.361}
{"variant": "U7A C16U", "self-cleavage": 1.17}
{"variant": "U13A A37C", "self-cleavage": 1.21}
{"variant": "C11U U19G", "self-cleavage": 0.329}
{"variant": "G5U C43G", "self-cleavage": 0.335}
{"variant": "U32G A37C", "self-cleavage": 0.431}
{"variant": "U24A G27U", "self-cleavage": 0.508}
{"variant": "G8U C38G", "self-cleavage": 0.887}
{"variant": "C15G A34G", "self-cleavage": 0.833}
{"variant": "U14G G39C", "self-cleavage": 0.41}
{"variant": "G33A A34G", "self-cleavage": 0.484}
{"variant": "U7G A44C", "self-cleavage": 0.411}
{"variant": "U13G A40G", "self-cleavage": 0.281}
{"variant": "G17U G35U", "self-cleavage": 0.454}
{"variant": "G10C U32A", "self-cleavage": 1.09}
{"variant": "U14A G17C", "self-cleavage": 0.375}
{"variant": "C20A A41U", "self-cleavage": 0.335}
{"variant": "G22U A44C", "self-cleavage": 0.432}
{"variant": "G4C G8C", "self-cleavage": 0.592}
{"variant": "A40U A42G", "self-cleavage": 0.261}
{"variant": "C29U A42G", "self-cleavage": 0.283}
{"variant": "G18A U28G", "self-cleavage": 0.542}
{"variant": "A1C A44C", "self-cleavage": 0.376}
{"variant": "U28G C43A", "self-cleavage": 0.323}
{"variant": "G31C A44G", "self-cleavage": 1.53}
{"variant": "U19G A37G", "self-cleavage": 0.3}
{"variant": "U13C U32C", "self-cleavage": 1.11}
{"variant": "G18C A42U", "self-cleavage": 0.325}
{"variant": "U7C G39A", "self-cleavage": 0.469}
{"variant": "A1G U13C", "self-cleavage": 1.87}
{"variant": "C15G A37U", "self-cleavage": 0.367}
{"variant": "G17U U32A", "self-cleavage": 0.764}
{"variant": "G17U U32C", "self-cleavage": 0.633}
{"variant": "U28C U32C", "self-cleavage": 1}
{"variant": "C3U U9A", "self-cleavage": 1.03}
{"variant": "U28A A41U", "self-cleavage": 0.303}
{"variant": "G4A A26U", "self-cleavage": 0.472}
{"variant": "U7C U14C", "self-cleavage": 0.585}
{"variant": "A26G G31C", "self-cleavage": 0.324}
{"variant": "A1G G36U", "self-cleavage": 1.02}
{"variant": "A34C G35C", "self-cleavage": 0.398}
{"variant": "U9A U19C", "self-cleavage": 0.535}
{"variant": "C16A U21G", "self-cleavage": 0.316}
{"variant": "U12G U19G", "self-cleavage": 0.509}
{"variant": "G31U G35U", "self-cleavage": 1.03}
{"variant": "U24A C38A", "self-cleavage": 0.696}
{"variant": "C16U G18A", "self-cleavage": 0.618}
{"variant": "U12C A42G", "self-cleavage": 0.255}
{"variant": "A40U C43G", "self-cleavage": 0.287}
{"variant": "C2G U32A", "self-cleavage": 0.418}
{"variant": "G25A G36A", "self-cleavage": 0.32}
{"variant": "C15U A37G", "self-cleavage": 0.789}
{"variant": "U21A A26C", "self-cleavage": 0.299}
{"variant": "G8C G31A", "self-cleavage": 1.06}
{"variant": "U12A C15G", "self-cleavage": 0.85}
{"variant": "U19G A34U", "self-cleavage": 0.289}
{"variant": "U14C C43U", "self-cleavage": 0.337}
{"variant": "G22C A23C", "self-cleavage": 0.28}
{"variant": "C11A G27A", "self-cleavage": 0.928}
{"variant": "C11U C29G", "self-cleavage": 0.646}
{"variant": "A1C A23C", "self-cleavage": 0.287}
{"variant": "U28G A44C", "self-cleavage": 0.371}
{"variant": "U19C G25U", "self-cleavage": 0.273}
{"variant": "G17C A34G", "self-cleavage": 0.436}
{"variant": "U24A A26C", "self-cleavage": 0.602}
{"variant": "U7C G36C", "self-cleavage": 0.348}
{"variant": "G36A A42U", "self-cleavage": 0.333}
{"variant": "U13A U32A", "self-cleavage": 1.31}
{"variant": "U9A C38U", "self-cleavage": 1.23}
{"variant": "G27A G45A", "self-cleavage": 0.416}
{"variant": "C20A G27A", "self-cleavage": 0.333}
{"variant": "C30G A41G", "self-cleavage": 0.349}
{"variant": "C3U G27A", "self-cleavage": 0.93}
{"variant": "C15G A23C", "self-cleavage": 0.301}
{"variant": "G8A U21G", "self-cleavage": 0.4}
{"variant": "G4U U9G", "self-cleavage": 0.368}
{"variant": "G5U C11A", "self-cleavage": 0.919}
{"variant": "G17C A37G", "self-cleavage": 0.355}
{"variant": "G17C A37C", "self-cleavage": 0.505}
{"variant": "A37G C43G", "self-cleavage": 0.385}
{"variant": "G4A G35C", "self-cleavage": 0.391}
{"variant": "U7C U19C", "self-cleavage": 0.526}
{"variant": "C15A G31U", "self-cleavage": 0.999}
{"variant": "U12C G27U", "self-cleavage": 0.581}
{"variant": "G22A G27C", "self-cleavage": 0.39}
{"variant": "C16A A42G", "self-cleavage": 0.296}
{"variant": "A1C G45C", "self-cleavage": 0.441}
{"variant": "C16U U24G", "self-cleavage": 1.16}
{"variant": "G22C G25U", "self-cleavage": 0.432}
{"variant": "G22C G25C", "self-cleavage": 0.319}
{"variant": "G22C G25A", "self-cleavage": 0.409}
{"variant": "C15U C20A", "self-cleavage": 0.511}
{"variant": "A34G A37U", "self-cleavage": 0.47}
{"variant": "G5C C11G", "self-cleavage": 0.873}
{"variant": "G10A G18A", "self-cleavage": 0.943}
{"variant": "C3U A44G", "self-cleavage": 1.49}
